Read-outs that look alike come from different tables or passages of the source.
Columns and labels:
Experiment in all cases: ITC; iTC200, 25°C, 20 mM sodium phosphate, pH 7.4, 150 mM NaCl; both partners dialysed against the same buffer
[1] = target: Hsa NCOA2 CID (TIF2) (human)
Hsa ETS-2 PNT (human) = Hsa ETS-2 PNT (human) (UniProt P15036)
[2] = target: Hsa NCOA1 CID (SRC1) (human)
[3] = target: Hsa NCOA3 CID (ACTR) (human) (UniProt Q9Y6Q9)
Hsa p53TAD (human) = Hsa p53TAD (human) (UniProt P04637)
[4] = target: Hsa NCOA2 CID (TIF2) (human); remark: listed apart in the source
Fish/Tetrapod NCOA3 CID = target: Fish/Tetrapod NCOA3 CID
[5] = target: Hsa NCOA1 CID (SRC1) (human); remark: listed apart in the source
Target sequence in this assay (Q15788 1040-1081): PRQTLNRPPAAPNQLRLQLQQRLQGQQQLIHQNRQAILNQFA

1R CID S1078Q = target: 1R CID S1078Q
1R CID G1080S = target: 1R CID G1080S
1R CID = target: 1R CID
1R CID S1058N = target: 1R CID S1058N
[6] = target: T1, Hsa ETS-2 PNT (human), P15036
T1 chain: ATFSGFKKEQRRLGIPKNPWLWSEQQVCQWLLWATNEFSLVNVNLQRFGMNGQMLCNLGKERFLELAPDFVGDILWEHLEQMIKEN

Hsa p53TAD = target: T2, Hsa p53TAD (human, UniProt P04637 1-61); settings: both partners purified
T2 construct: source: expressed and purified as previously described (Dogan et al., 2015)

Hsa NCOA3 CID (ACTR) = target: T3, Hsa NCOA3 CID (ACTR) (human, UniProt Q9Y6Q9-3 1040-1081); settings: both partners purified
T3 construct: numbers count on: splice variant NCOA3-002 (ENST00000371997); pRSET vector; also called human NCOA3 CID; ACTR CID
T3 chain (looked up): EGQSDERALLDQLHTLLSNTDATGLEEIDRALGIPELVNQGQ

Hsa ETS-2 PNT = target: T4, Hsa ETS-2 PNT (human, UniProt P15036 85-170); settings: both partners purified
T4 construct: pointed (PNT) domain of human ETS-2; also called globular pointed (PNT) domain from human ETS-2; PNT domain of ETS-2; source: expressed and purified as previously described (Dogan et al., 2015)
T4 sequence (looked up): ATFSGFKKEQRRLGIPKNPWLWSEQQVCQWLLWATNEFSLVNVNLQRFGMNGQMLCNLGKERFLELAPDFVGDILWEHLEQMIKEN

Sequence of Hsa p53TAD (human) (P04637 1-61): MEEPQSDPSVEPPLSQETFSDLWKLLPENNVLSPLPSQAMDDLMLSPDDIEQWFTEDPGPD
T2 sequence (P04637 1-61): as above

## Pma NCBD (domain or fragment)
[1]
  Kd: 44 nM
Hsa ETS-2 PNT (human)
  Kd: 1000 nM
[2]
  Kd: 190 nM
[3]
  Kd: 230 nM

## Hsa p300 NCBD (domain or fragment)
[1]
  Kd: 71 nM
Hsa ETS-2 PNT (human)
  Kd: 1500 nM
[2]
  Kd: 180 nM
[3]
  Kd: 110 nM
Hsa p53TAD (human)
  Kd: 9200 nM

## Hsa CREBBP NCBD Y2108Q (from UniProt Q92793 2062-2109) (domain or fragment)
[1]
  Kd: 210 nM

## Hsa CREBBP NCBD (from UniProt Q92793 2062-2109) (domain or fragment)
[1]
  Kd: 130 nM
[2]
  Kd: 330 nM

## Dmel NCBD (domain or fragment)
[1]
  Kd: 22000 nM
[2]
  Kd: 5200 nM
[3]
  Kd: 37000 nM

## Hsa CREBBP NCBD A2106Q/Y2108Q (from UniProt Q92793 2062-2109) (domain or fragment)
[1]
  Kd: 220 nM

## Hsa CREBBP NCBD A2106Q (from UniProt Q92793 2062-2109) (domain or fragment)
[1]
  Kd: 100 nM

## ITPGALQDLLRTLKSPSSPQQQQQVLNILKSNPHLMAAFIKQRTAKYQ (domain or fragment, modifications not checked) [Dre CREBBP NCBD]
[4]
  Kd: 230 nM
Fish/Tetrapod NCOA3 CID
  Kd: 570 nM
[5]
  Kd: 290 nM

## IPPNALQDLLRTLRSPSSPQQQQQVLNILKSNPQLMAAFIKQRAAKYQ (domain or fragment, modifications not checked) [1R/2R NCBD]
[4]
  Kd: 45 nM
1R CID S1078Q
  Kd: 250 nM
1R CID G1080S
  Kd: 240 nM
[5]
  Kd: 110 nM
1R CID
  Kd: 200 nM
1R CID S1058N
  Kd: 220 nM
[6]
  Kd: 850 nM

## IPPNALQDLLRTLKSPSSPQQQQQVLNILKSNPQLMAAFIKQRTAKYQ (domain or fragment, modifications not checked) [Fish/Tetrapod CREBBP NCBD]
Fish/Tetrapod NCOA3 CID
  Kd: 410 nM
[6]
  Kd: 1300 nM

## IPPSALQDLLRTLRSPSSPQQQQQVLNILKSNPQLMAAFIKQRAARYQ (domain or fragment, modifications not checked) [1R/2R NCBD N2065S K2107R]
1R CID G1080S
  Kd: 130 nM
1R CID
  Kd: 170 nM

## IPPSALQDLLRTLRSPSSPQQQQQVLNILKSNPQLMAAFIKQRAAKYQ (domain or fragment, modifications not checked) [1R/2R NCBD N2065S]
1R CID
  Kd: 130 nM

B1: Hsa CREBBP NCBD (domain or fragment, human)
chain: GSISPSALQDLLRTLKSPSSPQQQQQVLNILKSNPQLMAAFIKQRTAKYV
notes: Gly-Ser left at the N-terminus from the expression construct; NCBD domain of human CREBBP; pRSET vector; also called human CREBBP NCBD
1R CID
  Kd: 380 nM
Hsa p53TAD
  Kd: 84000 nM
Hsa NCOA3 CID (ACTR)
  Kd: 350 nM
Hsa ETS-2 PNT
  Kd: 760 nM
